Measured values taken from paper PMC2191694.

How the values were obtained:
Oct-2 [1] = target: T1, Oct-2 (UniProt P09086 1-479); assay: competition
Oct-2 [2] = target: T1, Oct-2; assay: EMSA
Oct-2 [3] = target: T1, Oct-2; assay: competition; remark: listed apart in the source

T1 sequence (P09086 whole entry): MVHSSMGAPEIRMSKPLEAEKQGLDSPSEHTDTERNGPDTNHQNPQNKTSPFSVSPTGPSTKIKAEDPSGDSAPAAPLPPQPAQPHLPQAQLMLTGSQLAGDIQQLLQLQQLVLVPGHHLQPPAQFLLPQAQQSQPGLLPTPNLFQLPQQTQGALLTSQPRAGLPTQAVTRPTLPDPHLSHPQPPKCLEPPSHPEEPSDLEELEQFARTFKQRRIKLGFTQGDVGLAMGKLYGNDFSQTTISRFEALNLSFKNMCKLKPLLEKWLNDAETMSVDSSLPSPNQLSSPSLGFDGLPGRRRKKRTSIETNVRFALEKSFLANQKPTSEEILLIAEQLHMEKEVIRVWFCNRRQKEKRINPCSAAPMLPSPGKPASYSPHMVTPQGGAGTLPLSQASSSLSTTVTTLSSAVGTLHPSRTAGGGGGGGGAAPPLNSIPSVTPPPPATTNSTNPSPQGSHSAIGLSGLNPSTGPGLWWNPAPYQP

B1: IL2-OAP/mOCT (dsDNA)
DNA 1: TTGAAAATATGTGTAATATAATACTCATTT
DNA 2: AAATGAGTATTATATTACACATATTTTCAA
B1: no binding (Oct-2 [1]).

B2: IL2-deltaOAP/OCT (dsDNA)
DNA 1: ATATGTAAAACATTT
DNA 2: AAATGTTTTACATAT
B2: binds (Oct-2 [2]).

B3: IL2-mOAP/OCT (dsDNA)
DNA 1: TTGAAAATATTTTTAATATGTAAAACATTT
DNA 2: AAATGTTTTACATATTAAAAATATTTTCAA
B3: binds (Oct-2 [3]).
